Data taken from US20150267232A1, “IN VIVO AND IN VITRO CARBENE INSERTION AND NITRENE TRANSFER REACTIONS CATALYZED BY HEME ENZYMES” (California Institute of Technology, priority 2012, published 2015).

Assay: Small-scale anaerobic C—H amination with purified enzymes, azide 1
Format: biochemical
Settings: for TTN: 0.1 mol % catalyst loading (2 μM), 2 mM azide 1, 2 mM NADPH; for TTN (C—H amination product 3): catalyst loading 0.5 mol %, NADPH, anaerobic
Summary of the method: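 Purified P450 or P411 enzymes (0.1-0.5% catalyst loading) in 400 μL reactions of 0.1 M potassium phosphate pH 8.0 with a catalase/glucose oxidase oxygen-depletion system were made anaerobic under argon, given 10 μL of 80 mM arylsulfonyl azide in DMSO, and stirred 24 h at room temperature. After HCl quench and acetonitrile addition, sultam was quantified by HPLC at 220 nm against an internal standard; enantioselectivity was measured by chiral HPLC.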

Molecule	TTN (benzosultam 3)	TTN (C—H amination product 3)	% ee (0.1 mol % catalyst loading, (S−R)/(S+R), benzosultam 3)	activity with reductant NADPH (NADPH (2 mM), 0.1 mol % loading, azide 1)	activity with reductant Dithionite (dithionite (2 mM), 0.1 mol % loading, azide 1)
P450BM3: wild-type cytochrome P450BM3 from Bacillus megaterium (SEQ ID NO: 1) (protein, listed as Bacillus megaterium, cytochrome P450NADPH-P-450 reductase precursor, cytochrome P450 (BM3), CYP102A1) TIKEMPQPKTFGELKNLPLLNTDKPVQALMKIADELGEIFKFEAPGRVTRYLSSQRLIKEACDESRFDKNLSQALKFVRDFAGDGLFTSWTHEKNWKKAHNILLPSFSQQAMKGYHAMMVDIAVQLVQKWERLNADEHIEVPEDMTRLTLDTIGLCGFNYRFNSFYRDQPHPFITSMVRALDEAMNKLQRANPDDPAYDENKRQFQEDIKVMNDLVDKIIADRKASGEQSDDLLTHMLNGKDPETGEPLDDENIRYQIITFLIAGHETTSGLLSFALYFLVKNPHVLQKAAEEAARVLVDPVPSYKQVKQLKYVGMVLNEALRLWPTAPAFSLYAKEDTVLGGEYPLEKGDELMVLIPQLHRDKTIWGDDVEEFRPERFENPSAIPQHAFKPFGNGQRACIGQQFALHEATLVLGMMLKHFDFEDHTNYELDIKETLTLKPEGFVVKAKSKKIPLGGIPSPSTEQSAKKVRKKAENAHNTPLLVLYGSNMGTAEGTARDLADIAMSKGFAPQVATLDSHAGNLPREGAVLIVTASYNGHPPDNAKQFVDWLDQASADEVKGVRYSVFGCGDKNWATTYQKVPAFIDETLAAKGAENIADRGEADASDDFEGTYEEWREHMWSDVAAYFNLDIENSEDNKSTLSLQFVDSAADMPLAKMHGAFSTNVVASKELQQPGSARSTRHLEIELPKEASYQEGDHLGVIPRNYEGIVNRVTARFGLDASQQIRLEAEEEKLAHLPLAKTVSVEELLQYVELQDPVTRTQLRAMAAKTVCPPHKVELEALLEKQAYKEQVLAKRLTMLELLEKYPACEMKFSEFIALLPSIRPRYYSISSSPRVDEKQASITVSVVSGEAWSGYGEYKGIASNYLAELQEGDTITCFISTPQSEFTLPKDPETPLIMVGPGTGVAPFRGFVQARKQLKEQGQSLGEAHLYFGCRSPHEDYLYQEELENAQSEGIITLHTAFSRMPNQPKTYVQHVMEQDGKKLIELLDQGAHFYICGDGSQMAPAVEATLMKSYADVHQVSEADARLWLQQLEEKGRYAKDVWAG	2.1	4	–	–	–
BM3-T268A: P450BM3 variant: T268A (protein, listed as Bacillus megaterium, cytochrome P450NADPH-P-450 reductase precursor, cytochrome P450 (BM3), CYP102A1) TIKEMPQPKTFGELKNLPLLNTDKPVQALMKIADELGEIFKFEAPGRVTRYLSSQRLIKEACDESRFDKNLSQALKFVRDFAGDGLFTSWTHEKNWKKAHNILLPSFSQQAMKGYHAMMVDIAVQLVQKWERLNADEHIEVPEDMTRLTLDTIGLCGFNYRFNSFYRDQPHPFITSMVRALDEAMNKLQRANPDDPAYDENKRQFQEDIKVMNDLVDKIIADRKASGEQSDDLLTHMLNGKDPETGEPLDDENIRYQIITFLIAGHEATSGLLSFALYFLVKNPHVLQKAAEEAARVLVDPVPSYKQVKQLKYVGMVLNEALRLWPTAPAFSLYAKEDTVLGGEYPLEKGDELMVLIPQLHRDKTIWGDDVEEFRPERFENPSAIPQHAFKPFGNGQRACIGQQFALHEATLVLGMMLKHFDFEDHTNYELDIKETLTLKPEGFVVKAKSKKIPLGGIPSPSTEQSAKKVRKKAENAHNTPLLVLYGSNMGTAEGTARDLADIAMSKGFAPQVATLDSHAGNLPREGAVLIVTASYNGHPPDNAKQFVDWLDQASADEVKGVRYSVFGCGDKNWATTYQKVPAFIDETLAAKGAENIADRGEADASDDFEGTYEEWREHMWSDVAAYFNLDIENSEDNKSTLSLQFVDSAADMPLAKMHGAFSTNVVASKELQQPGSARSTRHLEIELPKEASYQEGDHLGVIPRNYEGIVNRVTARFGLDASQQIRLEAEEEKLAHLPLAKTVSVEELLQYVELQDPVTRTQLRAMAAKTVCPPHKVELEALLEKQAYKEQVLAKRLTMLELLEKYPACEMKFSEFIALLPSIRPRYYSISSSPRVDEKQASITVSVVSGEAWSGYGEYKGIASNYLAELQEGDTITCFISTPQSEFTLPKDPETPLIMVGPGTGVAPFRGFVQARKQLKEQGQSLGEAHLYFGCRSPHEDYLYQEELENAQSEGIITLHTAFSRMPNQPKTYVQHVMEQDGKKLIELLDQGAHFYICGDGSQMAPAVEATLMKSYADVHQVSEADARLWLQQLEEKGRYAKDVWAG	15	28	36%	22	25
